# Data taken from article PMC139967.
# Molecular target: T701-Myo1c (neck-tail fragment of bullfrog myosin-1c, amino acids 701-1028) (bullfrog) (UniProt Q92002)
# Assay: SDS-PAGE gel scanning
# T701-Myo1c (neck-tail fragment of bullfrog myosin-1c, amino acids 701-1028) (bullfrog), sequence (Q92002 701-1028): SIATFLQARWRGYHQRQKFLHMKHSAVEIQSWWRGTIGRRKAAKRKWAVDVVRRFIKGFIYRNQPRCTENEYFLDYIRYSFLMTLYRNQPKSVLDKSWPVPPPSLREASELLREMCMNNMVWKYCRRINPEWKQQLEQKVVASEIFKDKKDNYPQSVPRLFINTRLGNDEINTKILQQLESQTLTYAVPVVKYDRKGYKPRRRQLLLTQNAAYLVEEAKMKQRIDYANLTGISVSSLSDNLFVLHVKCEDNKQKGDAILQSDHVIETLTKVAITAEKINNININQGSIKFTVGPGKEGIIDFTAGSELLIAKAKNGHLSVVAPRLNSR
substance,measurement,value
Xenopus calmodulin (from UniProt P0DP33 1-149) (natural protein),stoichiometry N (calmodulins per T701-Myo1c),2.6
